This assay concerns the target recombinant microtubule-associated protein Tau (Homo sapiens (Human)) (UniProt P10636).

In the case of “purified active CDK5/p25 complex (enzyme)”, the in vitro phosphorylation, stoichiometry; MALDI-TOF MS of tryptic peptides (phosphates per Tau molecule) is 0.5.

The values above are taken from patent US20050261475A1.
